According to article PMC6955305, “An inhibitor of complement C5 provides structural insights into activation” (Proceedings of the National Academy of Sciences of the …, 2019):

B1: OmCI (natural protein)
chain: DSESDCTGSEPVDAFQAFSEGKEAYVLVRSTDPKARDCLKGEPAGEKQDNTLPVMMTFKNGTDWASTDWTFTLDGAKVTATLGNLTQNREVVYDSQSHHCHVDKVEKEVPDYEMWMLDAGGLEVEVECCRQKLEELASGRNQMYPHLKDC
notes: also called Coversin

How the values were obtained:
[1] = molecular target: complement C5 (human (endogenous in serum)) (UniProt P01031); assay: SPR
complement C5 = complement C5 (human (endogenous in serum), UniProt P01031 19-673; P01031 678-1676); assay: SEC-MALS; 100 uL at 1 mg/mL on S200 10/300 in PBS; C5-OmCI with RaCI and EcuFab, with or without CirpT1 (2-fold molar excess, excess removed by SEC); conditions: both partners purified
complement C5, sequence (P01031 19-673, chain 1 of 2): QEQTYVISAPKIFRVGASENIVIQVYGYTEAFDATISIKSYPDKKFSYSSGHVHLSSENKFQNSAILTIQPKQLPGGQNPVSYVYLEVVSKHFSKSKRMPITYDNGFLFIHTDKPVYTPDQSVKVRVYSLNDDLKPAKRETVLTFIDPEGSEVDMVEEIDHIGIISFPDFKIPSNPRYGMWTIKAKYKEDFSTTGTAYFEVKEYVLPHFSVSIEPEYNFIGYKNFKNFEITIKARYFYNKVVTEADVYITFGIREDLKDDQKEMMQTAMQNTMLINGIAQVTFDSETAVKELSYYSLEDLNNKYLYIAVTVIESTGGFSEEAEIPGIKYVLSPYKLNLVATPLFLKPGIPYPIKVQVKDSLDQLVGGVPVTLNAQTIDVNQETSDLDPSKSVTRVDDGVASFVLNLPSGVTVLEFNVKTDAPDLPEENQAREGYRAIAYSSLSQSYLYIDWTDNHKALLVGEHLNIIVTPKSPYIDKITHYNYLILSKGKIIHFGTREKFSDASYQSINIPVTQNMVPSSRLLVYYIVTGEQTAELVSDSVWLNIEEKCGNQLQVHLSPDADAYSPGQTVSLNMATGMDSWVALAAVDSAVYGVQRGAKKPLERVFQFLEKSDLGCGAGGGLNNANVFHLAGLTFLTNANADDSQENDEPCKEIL
complement C5, sequence (P01031 678-1676, chain 2 of 2): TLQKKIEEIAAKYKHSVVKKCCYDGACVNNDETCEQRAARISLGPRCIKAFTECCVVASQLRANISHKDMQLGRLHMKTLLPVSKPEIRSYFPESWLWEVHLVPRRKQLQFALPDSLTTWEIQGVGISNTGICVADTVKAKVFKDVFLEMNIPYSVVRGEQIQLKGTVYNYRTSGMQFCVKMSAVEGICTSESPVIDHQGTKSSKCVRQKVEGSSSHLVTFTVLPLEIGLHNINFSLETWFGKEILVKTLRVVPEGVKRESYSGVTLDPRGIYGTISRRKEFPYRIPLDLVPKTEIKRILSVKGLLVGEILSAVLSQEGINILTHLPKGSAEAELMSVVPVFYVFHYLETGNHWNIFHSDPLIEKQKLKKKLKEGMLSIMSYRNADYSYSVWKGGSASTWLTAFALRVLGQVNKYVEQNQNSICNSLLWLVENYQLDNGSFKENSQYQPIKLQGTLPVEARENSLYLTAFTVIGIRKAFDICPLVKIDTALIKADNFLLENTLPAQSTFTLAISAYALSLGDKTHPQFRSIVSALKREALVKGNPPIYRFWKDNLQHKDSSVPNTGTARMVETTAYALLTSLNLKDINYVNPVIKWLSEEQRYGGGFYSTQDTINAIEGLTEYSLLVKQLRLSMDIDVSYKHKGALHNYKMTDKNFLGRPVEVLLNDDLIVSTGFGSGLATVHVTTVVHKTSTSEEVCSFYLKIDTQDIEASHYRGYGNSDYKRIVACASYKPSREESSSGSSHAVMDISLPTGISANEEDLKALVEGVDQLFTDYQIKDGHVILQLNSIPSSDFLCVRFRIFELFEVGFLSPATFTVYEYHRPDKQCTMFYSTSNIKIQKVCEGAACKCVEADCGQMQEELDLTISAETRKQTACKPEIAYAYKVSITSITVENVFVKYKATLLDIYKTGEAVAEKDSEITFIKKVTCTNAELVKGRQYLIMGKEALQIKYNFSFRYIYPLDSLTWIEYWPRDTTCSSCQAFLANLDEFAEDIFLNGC

complement C5 (human (endogenous in serum)), sequence (P01031 19-673, chain 1 of 2): as the sequence (P01031 19-673, chain 1 of 2) above
complement C5 (human (endogenous in serum)), sequence (P01031 678-1676, chain 2 of 2): as the sequence (P01031 678-1676, chain 2 of 2) above

Molecule | Kd [1] | binding result (complement C5)
CirpT1 (complement inhibitor from Rhipicephalus pulchellus of the terminal pathway, family member 1) (natural protein) | 10 nM | 
B1 |  | binds
